Experimental data published in paper PMC10397247.
Blank lines part the entries; values can stand above or below the binder they belong to.

Key:
4H3354-bH = target: T1, 4H3354-bH; assay: two-hybrid library CCNG1;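 further: natural log of median RNA to DNA barcode read ratio; higher means stronger binding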
T1 chain: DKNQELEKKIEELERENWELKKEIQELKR

4H338-bH = target: T2, 4H338-bH; assay: two-hybrid library CCNG1;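 further: natural log of median RNA to DNA barcode read ratio; higher means stronger binding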
T2 chain: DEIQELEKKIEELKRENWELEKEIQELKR

4H3427-bH = target: T3, 4H3427-bH; assay: two-hybrid library CCNG1;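 further: natural log of median RNA to DNA barcode read ratio; higher means stronger binding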
T3 chain: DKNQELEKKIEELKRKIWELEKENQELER

4H3782-bH = target: T4, 4H3782-bH; assay: two-hybrid library CCNG1;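 further: natural log of median RNA to DNA barcode read ratio; higher means stronger binding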
T4 chain: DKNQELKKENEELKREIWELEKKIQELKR

4H3855-bH = target: T5, 4H3855-bH; assay: two-hybrid library CCNG1
T5 chain: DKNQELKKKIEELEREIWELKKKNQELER

4H4001-bH = target: T6, 4H4001-bH; assay: two-hybrid library CCNG1
T6 chain: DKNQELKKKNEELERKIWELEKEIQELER

4H454-bH = target: T7, 4H454-bH; assay: two-hybrid library CCNG1
T7 chain: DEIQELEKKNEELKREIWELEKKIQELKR

4H496-bN = target: T8, 4H496-bN; assay: two-hybrid library CCNG1
T8 chain: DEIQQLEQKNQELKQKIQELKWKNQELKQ

4H568-bH = target: T9, 4H568-bH; assay: two-hybrid library CCNG1
T9 chain: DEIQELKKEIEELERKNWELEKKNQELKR

4H607-bH = target: T10, 4H607-bH; assay: two-hybrid library CCNG1
T10 chain: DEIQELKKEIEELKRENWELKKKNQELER

4H687-bH = target: T11, 4H687-bH; assay: two-hybrid library CCNG1
T11 chain: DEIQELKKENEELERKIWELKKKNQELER

4H717-bH = target: T12, 4H717-bH; assay: two-hybrid library CCNG1
T12 chain: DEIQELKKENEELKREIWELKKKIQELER

4H72-bH = target: T13, 4H72-bH; assay: two-hybrid library CCNG1
T13 chain: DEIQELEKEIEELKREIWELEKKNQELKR

4H754-bH = target: T14, 4H754-bH; assay: two-hybrid library CCNG1
T14 chain: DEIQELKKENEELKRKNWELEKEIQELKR

4H797-bH = target: T15, 4H797-bH; assay: two-hybrid library CCNG1
T15 chain: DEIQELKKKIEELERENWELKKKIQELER

4H883-bH = target: T16, 4H883-bH; assay: two-hybrid library CCNG1
T16 chain: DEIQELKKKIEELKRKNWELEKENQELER

4H908-bH = target: T17, 4H908-bH; assay: two-hybrid library CCNG1
T17 chain: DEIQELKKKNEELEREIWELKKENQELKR

4H918-bH = target: T18, 4H918-bH; assay: two-hybrid library CCNG1
T18 chain: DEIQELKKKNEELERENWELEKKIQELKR

4H953-bH = target: T19, 4H953-bH; assay: two-hybrid library CCNG1
T19 chain: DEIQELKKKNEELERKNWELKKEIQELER

4H967-bH = target: T20, 4H967-bH; assay: two-hybrid library CCNG1
T20 chain: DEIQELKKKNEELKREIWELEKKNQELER

P6SHb = target: T21, P6SHb; assay: two-hybrid library CCNG1
T21 chain: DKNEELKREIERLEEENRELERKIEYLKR

P7SHb = target: T22, P7SHb; assay: two-hybrid library CCNG1
T22 chain: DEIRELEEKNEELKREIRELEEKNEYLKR

P8SHb = target: T23, P8SHb; assay: two-hybrid library CCNG1
T23 chain: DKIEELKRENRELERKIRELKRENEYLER

P9SHb = target: T24, P9SHb; assay: two-hybrid library CCNG1
T24 chain: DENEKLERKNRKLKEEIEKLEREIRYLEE

P5SC1 = target: T25, P5SC1; assay: two-hybrid library CC1
T25 chain: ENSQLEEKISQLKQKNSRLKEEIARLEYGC

P5SC2 = target: T26, P5SC2; assay: two-hybrid library CC1; details: mean of both orientations
T26 chain: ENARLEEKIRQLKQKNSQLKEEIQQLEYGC

P5mS = target: T27, P5mS; assay: two-hybrid library CC1; details: mean of both orientations
T27 chain: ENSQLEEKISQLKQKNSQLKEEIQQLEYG

P6SC1 = target: T28, P6SC1; assay: two-hybrid library CC1; details: mean of both orientations
T28 chain: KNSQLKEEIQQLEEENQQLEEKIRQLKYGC

P6SC2 = target: T29, P6SC2; assay: two-hybrid library CC1; details: mean of both orientations
T29 chain: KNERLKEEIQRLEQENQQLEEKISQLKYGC

P6 = target: T30, P6; assay: two-hybrid library CC1; details: mean of both orientations
T30 chain: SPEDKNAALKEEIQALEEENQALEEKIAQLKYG

P6mS = target: T31, P6mS; assay: two-hybrid library CC1; details: mean of both orientations
T31 chain: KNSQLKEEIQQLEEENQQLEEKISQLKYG

P7 = target: T32, P7; assay: two-hybrid library CC1; details: mean of both orientations
T32 chain: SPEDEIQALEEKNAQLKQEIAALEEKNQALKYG

P7mS = target: T33, P7mS; assay: two-hybrid library CC1; details: mean of both orientations
T33 chain: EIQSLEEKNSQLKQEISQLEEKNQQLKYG

P8 = target: T34, P8; assay: two-hybrid library CC1; details: mean of both orientations
T34 chain: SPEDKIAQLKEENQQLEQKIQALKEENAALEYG

P8mS = target: T35, P8mS; assay: two-hybrid library CC1; details: mean of both orientations
T35 chain: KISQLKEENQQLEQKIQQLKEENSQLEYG

P9 = target: T36, P9; assay: two-hybrid library CC1; details: mean of both orientations
T36 chain: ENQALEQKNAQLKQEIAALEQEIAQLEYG

- interaction score (4H3354-bH): 1.31
- interaction score (4H338-bH): 0.838
- interaction score (4H3427-bH): 0.568
- interaction score (4H3782-bH): -0.062
- interaction score (4H3855-bH): -0.383
- interaction score (4H4001-bH): -0.37
- interaction score (4H454-bH): 0.274
- interaction score (4H496-bN): 0.755
- interaction score (4H568-bH): -1.08
- interaction score (4H607-bH): -1.77
- interaction score (4H687-bH): -2.6
- interaction score (4H717-bH): 0.648
- interaction score (4H72-bH): -1.11
- interaction score (4H754-bH): -0.2
- interaction score (4H797-bH): 0.357
- interaction score (4H883-bH): -0.344
- interaction score (4H908-bH): -1.61
- interaction score (4H918-bH): 0.89
- interaction score (4H953-bH): -1.49
- interaction score (4H967-bH): -0.105
Binder: DKNQELEKKIEELERENWELKKEIQELKR [4H3354-bH]

- interaction score (P6SHb): 0.147
- interaction score (P7SHb): 0.946
- interaction score (P8SHb): 0.342
- interaction score (P9SHb): 0.769
Binder: DKNEELKREIERLEEENRELERKIEYLKR [P6SHb]

Binder: ENSQLEEKISQLKQKNSRLKEEIARLEYGC [P5SC1]
- interaction score (P5SC1): -2.92
- interaction score (P5SC2): -2.82
- interaction score (P5mS): -2.78
- interaction score (P6SC1): 0.372
- interaction score (P6SC2): 0.373
- interaction score (P6): 0.357
- interaction score (P6mS): 0.307
- interaction score (P7): -2.4
- interaction score (P7mS): -2.67
- interaction score (P8): -0.893
- interaction score (P8mS): -2.29
- interaction score (P9): -2.33
